Measurements reported in patent US10941200B2, “TREM2 cleavage modulators and uses thereof” (Deutsches Zentrum Für Neurodegenerative Erkrankungen EV, priority 2016, dated 2021).
“Also recorded” adds a separate entry of the source.

Assays:
Assay type in all cases: cell-based
human TREM2 [1] = test: MALDI-TOF mass spectrometry analysis of TREM2 ectodomain cleavage (C-terminal fragment) in HEK293 cells; conditions: C-terminally FLAG-tagged TREM2 in HEK293 cells; FIG. 1B
Experimental: HEK293 Flp-In cells stably expressing WT and H157Y TREM2 were harvested in PBS. Cell pellets were frozen at −20° C. until use. Cells were lysed in lysis buffer (4% DDM, 0.1% N-octylglucoside, 10 mM Tris-HCl, pH 8.0, 5 mM EDTA, and 140 mM NaCl) containing protease inhibitor mix (Sigma-Aldrich) for 20 min on ice. Following a clarifying spin at 13,000 g for 20 min, supernatants were subjected to a second clarifying spin by centrifugation at 100,000 g for 1 h, and incubated with anti-FLAG M2-agarose (Sigma-Aldrich) overnight by rotation at 4° C. Beads were washed four times with IP/MS buffer (0.1% N-octylglucoside, 10 mM Tris-HCl, pH 8.0, 5 mM EDTA, and 140 mM NaCl) and two times with water. Beads were stored at −20° C. until IP/MS analysis.
IP/MS analysis was performed using Voyager DE STR (Applied Biosystems) as described previously). Immunoprecipitated peptides were eluted with TFA/CH3CN/water (1:20:20) saturated with α-cyano-4-hydroxy cinnamic acid. The dissolved samples were dried on a stainless plate and subjected to MALDI-TOF MS analysis.

human TREM2 [2] = target: T1, human TREM2 (Homo sapiens, UniProt Q9NZC2); test: Immunoblotting of mature TREM2 in membrane fractions of HEK cells stably overexpressing wt TREM2; conditions: antibody 50 μg/mL, 24 hrs; normalized to immature TREM2; FIG. 7C
T1 construct: HEK293 Flp-In cells either expressing human full-length TREM2 or empty vector; expressed in transfected cells
T1 sequence (Q9NZC2 19-230): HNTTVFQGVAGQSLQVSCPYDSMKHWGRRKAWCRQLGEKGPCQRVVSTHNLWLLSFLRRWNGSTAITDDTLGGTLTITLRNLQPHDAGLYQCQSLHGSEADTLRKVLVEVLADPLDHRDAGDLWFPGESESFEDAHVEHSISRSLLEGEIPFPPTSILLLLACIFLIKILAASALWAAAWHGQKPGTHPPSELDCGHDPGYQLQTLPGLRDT
Experimental: HEK293 Flp-In cells stably overexpressing TREM2 or TREM2-DAP12 cDNA constructs were seeded at a density of 1.5×10^5/cm^2 and medium changed 48 h post seeding. Conditioned medium was collected after 18-20 h, immediately cooled down on ice, centrifuged at 13,000 rpm for 20 min at 4° C. and supernatants frozen at −20° C. until analysis. Supernatants were directly subjected to standard 15% SDS-PAGE. To prepare membrane fractions, cells were washed twice with ice-cold PBS, resuspended in ice-cold hypotonic buffer (0.01 M Tris, pH 7; 1 mM EDTA; 1 mM EGTA), freshly supplemented with protease inhibitor (Sigma) and incubated on ice for 30 min. After snap freezing in liquid
nitrogen and thawing, the disrupted cells were centrifuged at 13,000 rpm for 45 min at 4° C.
The resulting pellet was resuspended in STE lysis buffer (150 mM NaCl, 50 mM Tris-HCl,
pH 7.6, 2 mM EDTA, 1% Triton-X 100), incubated for 20 min on ice and clarified by centrifugation at 13,000 rpm for 30 min at 4° C. Protein concentrations were measured using the BCA method, equal amounts of protein were mixed with Laemmli sample buffer, supplemented with beta mercaptoethanol, separated by SDS-PAGE and transferred onto polyvinylidene difluoride membranes (Hybond P; Amersham Biosciences, Aylesbury, UK). Bound antibodies were visualized by corresponding HRP-conjugated secondary antibodies
using enhanced chemiluminescence technique (Pierce). Quantification of immunoblots was performed on a LAS-4000 image reader and analyzed using the Multi-Gauge V3.0 software (both Fujifilm Life Science).
(§1) 1*10^6-1.5*10^6 cells were seeded in the 6-well format. 24 hours later fresh medium was added to the cells. Antibody clones as generated by Dr. Feederle (Helmholtz Center Munich, Core Facility Monoclonal Antibody Development) were added simultaneously, i.e. for overnight treatment (about 24 hrs), at a final concentration of 50 μg/mL. On the next day, conditioned media and cells were collected and processed as described under “Preparation of conditioned media, cell lysates, and immunoblotting”.
(§2) ADAM10 inhibitor G1254023X (5 μM final concentration) and a control monoclonal antibody, which is specific for the C terminus of human TREM2, were used as positive and negative controls, respectively.

human TREM2 [3] = target: T1, human TREM2; test: sTREM2 ELISA of conditioned media from HEK293 Flp-In cells stably overexpressing wt TREM2 (ectodomain shedding); conditions: antibody 50 μg/mL, 24 hrs; normalized to immature TREM2; FIG. 7B
Experimental: as §1, §2
For quantitation of levels of sTREM2 in cell culture supernatants, an ELISA for human sTREM2 was established using the Meso Scale Discovery SECTOR Imager 2400. Streptavidin-coated 96-well plates were blocked overnight at 4° C. in 0.5% bovine serum albumin (BSA) and 0.05% Tween 20 in PBS (pH 7.4) (blocking buffer). For detection of human sTREM2, plates were shaken for 1 hour at room temperature with biotinylated polyclonal goat anti-human TREM2 capture antibody (0.25 mg/ml; R&D Systems) diluted in blocking buffer. Plates were washed subsequently four times with 0.05% Tween 20 in PBS (washing buffer) and incubated for 2 hours at room temperature with samples diluted 1:4 in 0.25% BSA and 0.05% Tween 20 in PBS (pH 7.4) (assay buffer) supplemented with protease inhibitors (Sigma). Recombinant human TREM2 protein (Holzel Diagnostika) was diluted in assay buffer in a two-fold serial dilution and used for the standard curve (concentration range, 4000 to […]). Plates were washed three times for 5 min with washing buffer before incubation for 1 hour at room temperature with mouse monoclonal anti-TREM2 antibody (1 mg/ml; Santa Cruz Biotechnology; B-3) diluted in blocking buffer. After three additional washing steps, plates were incubated with a SULFO-TAG-labeled anti-mouse secondary antibody (1:1000; Meso Scale Discovery) and incubated for 1 hour in the dark. Last, plates were washed three times with washing buffer followed by two washing steps in PBS and developed by adding Meso Scale Discovery Read buffer. The light emission at 620 nm after electrochemical stimulation was measured using the Meso Scale Discovery SECTOR Imager 2400 reader. To quantify the levels of sTREM2 secreted from HEK293 Flp-In cells, conditioned media from biological replicates were analyzed in duplicates. The sTREM2 standard curves were generated using the MasterPlex ReaderFit software (MiraiBio Group, Hitachi Solutions America) through a five-parameter logistic fit. Levels of sTREM2 were subsequently normalized to levels of immature TREM2 as quantified from Western Blots.

CNC(=O)[C@H](Cc1c[nH]c2ccccc12)NC(=O)[C@@H](CC(=O)NO)CC(C)C [GM]
TREM2 C-terminal fragment cleavage peak in MALDI-TOF mass spectra upon ADAM inhibition (human TREM2 [1]): no identified peak; also recorded: did not show any peak

B1: clone 7A12: rat monoclonal antibody against TREM2 cleavage site peptide; heavy chain variable SEQ ID NO: 25, light chain variable SEQ ID NO: 35 (antibody, V domains shown)
VH: EVKLLESGGGLVQPGGSMRLSCAASGFTFTDFYMNWIRQPAGKAPEWLGLIRNKANGYTTQYNPSVKGRFTISRDNTQNMLYLQMNTLRGEDTATYYCARIGINNGGSLDYWGQGVMVTVSS
VL: DILINQSPASLTVSAGEKVTMSCKSSQSLLYSEKNQDYLAWYQQKPGQSPKLLMYGASYRHTGVPDRFTGSGSGTDFTLTISSVQAEDLADYYCEQTYSYPYTFGAGTKLELK
modifications: Clone 7A12 variable region of the heavy chain; Clone 7A12 variable region of the light chain
levels of mature TREM2 in the membrane fraction (quantified immunoblots), result in words (human TREM2 [2]): increased levels of TREM2 in the membrane fraction
sTREM2 levels (ELISA), result in words (human TREM2 [3]): slight trend toward reduced sTREM2 levels

B2: clone 18F9: rat monoclonal antibody against TREM2 cleavage site peptide; heavy chain variable SEQ ID NO: 29, light chain variable SEQ ID NO: 39 (antibody, V domains shown)
VH: EVKLLESGGGLVQPGGSMRLSCVVSGFTFTDFYMNWIRQAAGKAPEWLGLIRNKVNGYRTEYNPSVKGRFTISRDNIQNMLYLQMNTLRAEDTATYYCARIGINNGGSLDYWGQGVMVTVSS
VL: DILINQSPASLTVSAGEKVTMSCKSSQSLLYSENNQDYLAWYQQKPGQFPKLLIYGASNRHTGVPDRFTGSGSGTDFTLTISSVQAEDLADYYCEQTYSYPYTFGAGTKLELK
modifications: Clone 18F9 variable region of the heavy chain; Clone 18F9 variable chain of the light region
sTREM2 levels (ELISA), result in words (human TREM2 [3]): slight trend toward reduced sTREM2 levels

B3: clone 10C3: rat monoclonal antibody against TREM2 cleavage site peptide; heavy chain variable SEQ ID NO: 28, light chain variable SEQ ID NO: 38 (antibody, V domains shown)
VH: EVKLLESGGGLVQPGGSMRLSCAASGFTFTDFYMNWIRQPAGETPEWLGLIRNKTKGYTTEYNPSVKGRFTISRDNTQNMLYLQMNSLRPEDTATYYCARIGTNNGGSLDYWGQGVMVTVSS
VL: DILIIQSPASLTVSAGARVTMSCKSSQSLLYSENNQDYLAWYQQKPGQFPKLLIYGASNRHTGVPDRFTGSGSGTDFTLTISSVQAEDLADYYCEQTYSYPYTFGAGTKLELK
modifications: Clone 10C3 variable region of the heavy chain; Clone 10C3 variable region of the light chain
levels of mature TREM2 in the membrane fraction (quantified immunoblots), result in words (human TREM2 [2]): increased levels of TREM2 in the membrane fraction
sTREM2 levels (ELISA), result in words (human TREM2 [3]): slight trend toward reduced sTREM2 levels

B4: clone 8A11: rat monoclonal antibody against TREM2 cleavage site peptide; heavy chain variable SEQ ID NO: 26, light chain variable SEQ ID NO: 36 (antibody, V domains shown)
VH: EVKLLESGGGLVQPGGSMRLSCAASGFTFTDFYMNWIRQPAGKAPEWLGLIRNKTKGYTTEYNTSVKGRFTISRDNTQNMLYLQMNSLRPEDTATYYCARIGVNNGGSLDYWGQGVMVTVSS
VL: DILIIQSPASLTVSAGARVTMSCKSSQSLLYSENNQDYLAWYQQKPGQFPKLLIYGASNRHTGVPDRFTGSGSGTDFTLTISSVQAEDLADYYCEQTYSYPYTFGAGTKLELK
modifications: Clone 8A11 variable region of the heavy chain; Clone 8A11 variable region of the light chain
levels of mature TREM2 in the membrane fraction (quantified immunoblots), result in words (human TREM2 [2]): increased levels of TREM2 in the membrane fraction

B5: clone 15C5: rat monoclonal antibody against TREM2 cleavage site peptide; heavy chain variable SEQ ID NO: 30, light chain variable SEQ ID NO: 40 (antibody, V domains shown)
VH: EVKLLESGGGLVQPGGSMRLSCAASGFTFTDFYMNWIRQPAGKAPEWLGLIRNKAYGYTTEYNPSVKGRFTISRDNTQDMLYLQMNTLRAEDTATYYCARIGINYGGSLDYWGQGVMVTVSS
VL: DILINQSPASLTVSAGEKVTVSCKSSQSLLYSESNQDYLAWYQQKPGQFPKLLIYGASYRHTGVPDRFTGSGSGTDFTLTISSVQAEDLAHYYCEQTYSYPYTFGAGTKLELK
modifications: Clone 15C5 variable region of the heavy chain; Clone 15C5 variable region of the light chain
sTREM2 levels (ELISA), result in words (human TREM2 [3]): slight trend toward reduced sTREM2 levels

B6: clone 21A3: rat monoclonal antibody against TREM2 cleavage site peptide; heavy chain variable SEQ ID NO: 27, light chain variable SEQ ID NO: 37 (antibody, V domains shown)
VH: EVKLLESGGGLVQPGGSMRLSCAASGFTFTDFYMNWIRQPAGKAPEWLGLIRNKANGYTTQYNPSVKGRFTISRDNTQNMLYLQMNTLRGEDTATYYCARIGINNGGSLDYWGQGVMVTVSS
VL: DILINQSPASLTVSAGEKVTMSCKSSQSLLYSEKNQDYLAWYQQKPGQSPKLLMYGASYRHTGVPDRFTGSGSGTDFTLTISSVQAEDLADYYCEQTYSYPYTFGAGTKLELK
modifications: Clone 21A3 variable region of the heavy chain; Clone 21A3 variable region of the light chain
sTREM2 levels (ELISA), result in words (human TREM2 [3]): slight trend toward reduced sTREM2 levels
